Experimental findings from patent US20250011433A1 (GLIKNIK, published 2025) are described below.

Where two headings read alike, the source gives them in different places.

The target of test [1] is T1, FcγRI (UniProt P12314 16-288).
T1 construct: also called CD64
Put plainly: BLI (Octet). On the procedure: (§1) Binding of complement-preferential stradomers or parent stradomer G045c to FcγRI, FcγRIIb, FcγRIIIa, FcγRIIa, or FcRn was assessed. RU values of dissociation were measured by biolayer interferometry using a ForteBio Octet instrument. His-tagged receptor proteins were bound to the sensor tip in 1× kinetic analysis buffer from ForteBio after which the on rate of the receptor/protein was measured by transferring the sensor tip to a 1× kinetics buffer containing the purified stradomer of choice. Off rate was measured by transferring the sensor tip to a 1× kinetics buffer, and RU value was calculated from the measured maximum binding using the ForteBio software. Biolayer interferometry detects the binding between a ligand immobilized on the biosensor tip surface and an analyte in solution. When binding occurs it produces an increase in optical thickness at the biosensor tip, which results in a wavelength shift (detected as a response unit of “RU”). The maximum binding level (RU max) is the maximum possible amount of sample binding at equilibrium that saturates the amount of ligand on the sensor surface. The RU 300 is the residual sample binding after 300 seconds of dissociation and is useful to characterize the rate of dissociation of the test article from the test ligand.
A general note: Biolayer interferometry detects binding as a change in optical thickness at a sensor tip.

The target of test [2] is T2, FcγRIIb (UniProt P31994 46-217, limits assumed).
T2 sequence (looked up): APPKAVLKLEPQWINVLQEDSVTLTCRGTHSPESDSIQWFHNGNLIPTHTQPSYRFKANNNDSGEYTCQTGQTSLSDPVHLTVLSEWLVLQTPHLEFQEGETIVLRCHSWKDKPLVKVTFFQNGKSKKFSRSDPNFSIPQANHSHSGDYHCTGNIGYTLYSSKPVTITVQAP
As to the kind of experiment: BLI (Octet). On the procedure: as §1

In test [3] the target is T3, C1q (UniProt P02745 23-245; P02746 28-253; P02747 29-245).
T3 construct: bought C1q coated on ELISA plates at 1 µg/ml; also called complement C1q; complement factor C1q
T3 sequence (P02745 23-245 limits assumed, chain 1 of 3): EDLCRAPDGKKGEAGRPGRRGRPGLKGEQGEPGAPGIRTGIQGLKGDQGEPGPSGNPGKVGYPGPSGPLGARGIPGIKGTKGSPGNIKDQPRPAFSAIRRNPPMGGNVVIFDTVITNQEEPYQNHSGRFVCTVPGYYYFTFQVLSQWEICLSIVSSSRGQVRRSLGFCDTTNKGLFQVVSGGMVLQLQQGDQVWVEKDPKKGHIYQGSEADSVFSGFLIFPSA
T3 sequence (P02746 28-253 limits assumed, chain 2 of 3): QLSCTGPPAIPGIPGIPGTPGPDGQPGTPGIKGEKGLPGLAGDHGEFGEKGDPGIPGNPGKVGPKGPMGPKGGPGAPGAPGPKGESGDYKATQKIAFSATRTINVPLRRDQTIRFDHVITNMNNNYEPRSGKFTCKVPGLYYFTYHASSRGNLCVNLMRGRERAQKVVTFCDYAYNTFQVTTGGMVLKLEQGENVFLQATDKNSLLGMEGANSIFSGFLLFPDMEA
T3 sequence (P02747 29-245 limits assumed, chain 3 of 3): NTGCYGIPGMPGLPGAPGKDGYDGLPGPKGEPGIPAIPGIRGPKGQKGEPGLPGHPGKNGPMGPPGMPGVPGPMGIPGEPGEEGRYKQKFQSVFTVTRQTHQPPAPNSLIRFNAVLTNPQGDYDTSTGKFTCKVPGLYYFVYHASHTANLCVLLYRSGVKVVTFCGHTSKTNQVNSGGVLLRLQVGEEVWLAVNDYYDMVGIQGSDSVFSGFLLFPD
As to the kind of experiment: ELISA on coated C1q. On the procedure: For C1q binding, 96 well plates were coated with C1q (Sigma Cat #: C1740 1 μg/ml) overnight in PBS. After coating, plates were washed 3 times with standard wash buffer (iX PBS+0.05% Tween 20) and blocked with blocking buffer (1% BSA+1× PBS+0.05% Tween 20) for 2 hours at RT. Following blocking, plates were incubated with compound diluted in blocking buffer 100 μL/well and washed 3 times with standard washing buffer. C1q-bound compound was detected by incubation with 1:5000 biotinylated mouse anti-human IgG1(Cat #555869, BD Biosciences) and Streptavidin-HRP (Cat #: 7100-05 Southern Biotech) (100 μl/well) for 1 hour at room temperature followed by washing 3 times with washing buffer, after which color was developed using the standard TMB method according to manufacturer's protocol for 15 minutes. Absorbance was read at 450 nm.
In general terms: ELISA stands for enzyme-linked immunosorbent assay.

The target in test [4] is T1, FcγRI. As to the kind of experiment: BLI (Octet). On the procedure: as §1
(§2) For each stradomer in Tables 5-9, the level of canonical FcγR binding, complement C1q binding, and CDC inhibition were determined according to the methods described in Example 1.
The source holds these as a separate data set.

Test [5] deals with T2, FcγRIIb. Put plainly: BLI (Octet). On the procedure: as §1, §2
This is another data set of the same source.

Test [6] has as its target T3, C1q. As to the kind of experiment: cell-based or functional assay.

T1 sequence (P12314 16-288 limits assumed): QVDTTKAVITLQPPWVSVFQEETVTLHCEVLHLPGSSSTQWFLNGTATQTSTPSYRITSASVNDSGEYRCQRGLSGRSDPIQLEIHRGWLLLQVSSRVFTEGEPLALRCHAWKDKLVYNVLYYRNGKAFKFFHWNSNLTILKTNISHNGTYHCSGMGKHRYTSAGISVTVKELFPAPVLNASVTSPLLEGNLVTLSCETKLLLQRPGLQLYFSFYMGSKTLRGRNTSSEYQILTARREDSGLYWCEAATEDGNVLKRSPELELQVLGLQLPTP

B1: G1003 (Fc fusion)
chain: ERKCCVECPPCPEPKSCDKTHTCPPCPAPELLGGPSVFLFPPKPKDTLMISRTPEVTCVVVDVEFEDPEVKFNWYVDGVEVHNAKTKPREEQYNSTYRVVSVLTVLHQDWLNGKEYKCKVTNKALPAPIEKTISKAKGQPREPQVYTLPPSREEMTKNQVSLTCLVKGFYPSDIAVEWESNGQPENNYKTTPPVLDSDGSFFLYSKLTVDKSRWQQGNVFSCSVMHEALHNHYTQKSLSLSPGK
notes: G019 background, S267E/H268F/S324T; leader 1-20 cleaved
Regarding B1, the binding result with FcγRI [1], with FcγRIIb [2] and in the test with C1q [3] was “binds” each time.

B2: G1032 (Fc fusion)
chain: EPKSCDKTHTCPPCPAPEAAGGPSVFLFPPKPKDTLMISRTPEVTCVVVDVEFEDPEVKFNWYVDGVEVHNAKTKPREEQYNSTYRVVSVLTVLHQDWLNGKEYKCKVTNKALPAPIEKTISKAKGQPREPQVYTLPPSRDELTKNQVSLTCLVKGFYPSDIAVEWESNGQPENNYKTTPPVLDSDGSFFLYSKLTVDKSRWQQGNVFSCSVMHEALHNHYTQKSLSLSPGKERKCCVECPPCP
notes: G045c background, L234A/L235A/S267E/H268F/S324T; leader 1-20 cleaved
With B2, the binding result with FcγRI [1], in the test with FcγRIIb [2] and in the test with C1q [3] was “binds” each time.

B3: G997 (Fc fusion)
chain: EPKSCDKTHTCPPCPAPELLGGPSVFLFPPKPKDTLMISRTPEVTCVVVDVEFEDPEVKFNWYVDGVEVHNAKTKPREEQYNSTYRVVSVLTVLHQDWLNGKEYKCKVTNKALPAPIEKTISKAKGQPREPQVYTLPPSRDELTKNQVSLTCLVKGFYPSDIAVEWESNGQPENNYKTTPPVLDSDGSFFLYSKLTVDKSRWQQGNVFSCSVMHEALHNHYTQKSLSLSPGKERKCCVECPPCP
notes: G045c background, S267E/H268F/S324T; leader 1-20 cleaved
As for B3, the binding result in the test with FcγRI [1], with FcγRIIb [2] and in the test with C1q [3] was “binds” in each case.

B4: G1111 (Fc fusion)
chain: EPKSCDKTHTCPPCPAPPLLDGPSVFLFPPKPKDTLMISRTPEVTCVVVDVQFEDPEVKFNWYVDGVEVHNAKTKPREEQYNSTYRVVSVLTVLHQDWLNGKEYKCKVTNKALPAPIEKTISKAKGQPREPQVYTLPPSRDELTKNQVSLTCLVKGFYPSDIAVEWESNGQPENNYKTTPPVLDSDGSFFLYSKLTVDKSRWQQGNVFSCSVMHEALHNHYTQKSLSLSPGKERKCCVECPPCP
notes: G045c background, E233P/G236D/S267Q/H268F/S324T; leader 1-20 cleaved
Turning to B4, the binding result with FcγRI [4] and in the test with FcγRIIb [5] was “binds” in each case. In addition, the “CDC Inhibition (EC50, µg/mL)” value with C1q [6] came to 5 µg/mL.

B5: G1108 (Fc fusion)
chain: EPKSCDKTHTCPPCPAPPLLGGPSVFLFPPKPKDTLMISRTPEVTCVVVDVNFEDPEVKFNWYVDGVEVHNAKTKPREEQYNSTYRVVSVLTVLHQDWLNGKEYKCKVTNKALPAPIEKTISKAKGQPREPQVYTLPPSRDELTKNQVSLTCLVKGFYPSDIAVEWESNGQPENNYKTTPPVLDSDGSFFLYSKLTVDKSRWQQGNVFSCSVMHEALHNHYTQKSLSLSPGKERKCCVECPPCP
notes: G045c background, E233P/S267N/H268F/S324T; leader 1-20 cleaved
As for B5, the binding result in the test with FcγRI [4] and in the test with FcγRIIb [5] was “binds” each time. Besides, the “CDC Inhibition (EC50, µg/mL)” value in the test with C1q [6] worked out at 5 µg/mL.

B6: G1129 (Fc fusion)
chain: EPKSCDKTHTCPPCPAPPLLNGPSVFLFPPKPKDTLMISRTPEVTCVVVDVEFEDPEVKFNWYVDGVEVHNAKTKPREEQYNSTYRVVSVLTVLHQDWLNGKEYKCKVTNKALPAPIEKTISKAKGQPREPQVYTLPPSRDELTKNQVSLTCLVKGFYPSDIAVEWESNGQPENNYKTTPPVLDSDGSFFLYSKLTVDKSRWQQGNVFSCSVMHEALHNHYTQKSLSLSPGKERKCCVECPPCP
notes: G045c background, E233P/G236N/S267E/H268F/S324T; leader 1-20 cleaved
Take B6: the binding result in the test with FcγRI [4] and in the test with FcγRIIb [5] was “binds” throughout. For the same molecule, the “CDC Inhibition (EC50, µg/mL)” value with C1q [6] stood at 5 µg/mL.

B7: G1114 (Fc fusion)
chain: EPKSCDKTHTCPPCPAPPLLQGPSVFLFPPKPKDTLMISRTPEVTCVVVDVDFEDPEVKFNWYVDGVEVHNAKTKPREEQYNSTYRVVSVLTVLHQDWLNGKEYKCKVTNKALPAPIEKTISKAKGQPREPQVYTLPPSRDELTKNQVSLTCLVKGFYPSDIAVEWESNGQPENNYKTTPPVLDSDGSFFLYSKLTVDKSRWQQGNVFSCSVMHEALHNHYTQKSLSLSPGKERKCCVECPPCP
notes: G045c background, E233P/G236Q/S267D/H268F/S324T; leader 1-20 cleaved
With B7, the binding result with FcγRI [4] and with FcγRIIb [5] was “binds” throughout. The “CDC Inhibition (EC50, µg/mL)” value with C1q [6] is 5 µg/mL.

B8: G1117 (Fc fusion)
chain: EPKSCDKTHTCPPCPAPPLLDGPSVFLFPPKPKDTLMISRTPEVTCVVVDVDFEDPEVKFNWYVDGVEVHNAKTKPREEQYNSTYRVVSVLTVLHQDWLNGKEYKCKVTNKALPAPIEKTISKAKGQPREPQVYTLPPSRDELTKNQVSLTCLVKGFYPSDIAVEWESNGQPENNYKTTPPVLDSDGSFFLYSKLTVDKSRWQQGNVFSCSVMHEALHNHYTQKSLSLSPGKERKCCVECPPCP
notes: G045c background, E233P/G236D/S267D/H268F/S324T; leader 1-20 cleaved
In the case of B8, the binding result with FcγRI [4] and in the test with FcγRIIb [5] was “binds” in each case. For the same molecule, in the test with C1q [6], the “CDC Inhibition (EC50, µg/mL)” value stood at 5 µg/mL.

B9: G1105 (Fc fusion)
chain: EPKSCDKTHTCPPCPAPPLLNGPSVFLFPPKPKDTLMISRTPEVTCVVVDVSFEDPEVKFNWYVDGVEVHNAKTKPREEQYNSTYRVVSVLTVLHQDWLNGKEYKCKVTNKALPAPIEKTISKAKGQPREPQVYTLPPSRDELTKNQVSLTCLVKGFYPSDIAVEWESNGQPENNYKTTPPVLDSDGSFFLYSKLTVDKSRWQQGNVFSCSVMHEALHNHYTQKSLSLSPGKERKCCVECPPCP
notes: G045c background, E233P/G236N/H268F/S324T; leader 1-20 cleaved
Regarding B9, the binding result with FcγRI [4] and in the test with FcγRIIb [5] was “binds” throughout. Besides, the “CDC Inhibition (EC50, µg/mL)” value with C1q [6] was found to be 5 µg/mL.

B10: G1107 (Fc fusion)
chain: EPKSCDKTHTCPPCPAPELLGGPSVFLFPPKPKDTLMISRTPEVTCVVVDVHFEDPEVKFNWYVDGVEVHNAKTKPREEQYNSAYRVVSVLTVLHQDWLNGKEYKCKVTNKALPAPIEKTISKAKGQPREPQVYTLPPSRDELTKNQVSLTCLVKGFYPSDIAVEWESNGQPENNYKTTPPVLDSDGSFFLYSKLTVDKSRWQQGNVFSCSVMHEALHNHYTQKSLSLSPGKERKCCVECPPCP
notes: G045c background, S267H/H268F/S324T/T299A; leader 1-20 cleaved
On to B10, for which the binding result in the test with FcγRI [4] and with FcγRIIb [5] was “binds” in each case. For the same molecule, the “CDC Inhibition (EC50, µg/mL)” value with C1q [6] came to 12.5 µg/mL.

B11: G1125 (Fc fusion)
chain: EPKSCDKTHTCPPCPAPPLLGGPSVFLFPPKPKDTLMISRTPEVTCVVVDVHFEDPEVKFNWYVDGVEVHNAKTKPREEQYNSTYRVVSVLTVLHQDWLNGKEYKCKVTNKALPAPIEKTISKAKGQPREPQVYTLPPSRDELTKNQVSLTCLVKGFYPSDIAVEWESNGQPENNYKTTPPVLDSDGSFFLYSKLTVDKSRWQQGNVFSCSVMHEALHNHYTQKSLSLSPGKERKCCVECPPCP
notes: G045c background, E233P/S267H/H268F/S324T; leader 1-20 cleaved
For the molecule B11, the binding result with FcγRI [4] and in the test with FcγRIIb [5] was “binds” throughout. Also, the “CDC Inhibition (EC50, µg/mL)” value with C1q [6] came to 5 µg/mL.

B12: G1104 (Fc fusion)
chain: EPKSCDKTHTCPPCPAPPLLDGPSVFLFPPKPKDTLMISRTPEVTCVVVDVSFEDPEVKFNWYVDGVEVHNAKTKPREEQYNSTYRVVSVLTVLHQDWLNGKEYKCKVTNKALPAPIEKTISKAKGQPREPQVYTLPPSRDELTKNQVSLTCLVKGFYPSDIAVEWESNGQPENNYKTTPPVLDSDGSFFLYSKLTVDKSRWQQGNVFSCSVMHEALHNHYTQKSLSLSPGKERKCCVECPPCP
notes: G045c background, E233P/G236D/H268F/S324T; leader 1-20 cleaved
On to B12, for which the binding result with FcγRI [4] and in the test with FcγRIIb [5] was “binds” in each case. In addition, the “CDC Inhibition (EC50, µg/mL)” value in the test with C1q [6] was 5 µg/mL.

B13: G1122 (Fc fusion)
chain: EPKSCDKTHTCPPCPAPPLLHGPSVFLFPPKPKDTLMISRTPEVTCVVVDVQFEDPEVKFNWYVDGVEVHNAKTKPREEQYNSTYRVVSVLTVLHQDWLNGKEYKCKVTNKALPAPIEKTISKAKGQPREPQVYTLPPSRDELTKNQVSLTCLVKGFYPSDIAVEWESNGQPENNYKTTPPVLDSDGSFFLYSKLTVDKSRWQQGNVFSCSVMHEALHNHYTQKSLSLSPGKERKCCVECPPCP
notes: G045c background, E233P/G236H/S267Q/H268F/S324T; leader 1-20 cleaved
In the case of B13, the binding result with FcγRI [4] and with FcγRIIb [5] was “binds” throughout. Moreover, the “CDC Inhibition (EC50, µg/mL)” value with C1q [6] was 5 µg/mL.
